Assay results reported in publication doi:10.1101/2025.10.22.683813 (bioRxiv, 2025).

Molecular target: the molecule itself
Test: SEC

B1: NC-4 nucleocapsid subunit (other)
chain: MGNARTRRRERRAEKQAQWKAANAGAGAGAMATPHFDYNASVVSKGLANLSLELRKPVSFDIITADTLEQAIERAGTKHGNKGWEAALSAIEMANLYKSLRGTEHHHHLHGSSIEIYEGKLTAEGLRFGIVASRFNHTLVDRLVEGAIDCIVRHGGRGEDITLVRVPGAWEIPVAADELARKEDIDAVIAFGDLIRG
- binding result: binds
